The FLAb antibody collection (doi:10.7554/elife.23156)

B1: scFv; the commonest letter at each place (parent)
chain 1: EVKLDETGGGLVQPGRPMKLSCVASGFTFSDYWMNWVRQSPEKGLEWVAQIRNKPYNYETYYSDSVKGRFTISRDDSKSSVYLQMNNLRVEDMGIYYCTGSYYGMDYWGQGTSVTVS
chain 2: DVVMTQTPLSLPVSLGDQASISCRSSQSLVHSNGNTYLRWYLQKPGQSPKVLIYKVSNRFSGVPDRFSGSGSGTDFTLKISRVEAEDLGVYFCSQSTHVPWTFGGGTKLEIK

What was measured:
[1] = variants of: B1; assay: Kd (Tite-Seq); details: with fluorescein; format: scFv 4-4-20, heavy + light
[2] = variants of: B1; assay: yeast surface expression (ratio to wild type); higher = more expressed; details: format: scFv 4-4-20, heavy + light

Row | Variant | Kd [1] | yeast surface expression [2]
1 | chain 1 EVKLDETGGGLVQPGRPMKLSCVASGFTVSDYWMNSVRQSPEKGLEWVAQIRNKPYNYETYYSDSVKGRFTISRDDSKSSVYLQMNNLRVEDMGIYYCTGSYYGMDYWGQGTSVTVS chain 2 DVVMTQTPLSLPVSLGDQASISCRSSQSLVHSNGNTYLRWYLQKPGQSPKVLIYKVSNRFSGVPDRFSGSGSGTDFTLKISRVEAEDLGVYFCSQSTHVPWTFGGGTKLEIK [chain 1 F29V W36S] | ≥ 10 µM | 0.52
2 | chain 1 EVKLDETGGGLVQPGRPMKLSCVASGFTLSDYWMDWVRQSPEKGLEWVAQIRNKPYNYETYYSDSVKGRFTISRDDSKSSVYLQMNNLRVEDMGIYYCTGSYYGMDYWGQGTSVTVS chain 2 DVVMTQTPLSLPVSLGDQASISCRSSQSLVHSNGNTYLRWYLQKPGQSPKVLIYKVSNRFSGVPDRFSGSGSGTDFTLKISRVEAEDLGVYFCSQSTHVPWTFGGGTKLEIK [chain 1 F29L N35D] | ≥ 10 µM | 0.64
3 | chain 1 EVKLDETGGGLVQPGRPMKLSCVASGFTSSDYWMNQVRQSPEKGLEWVAQIRNKPYNYETYYSDSVKGRFTISRDDSKSSVYLQMNNLRVEDMGIYYCTGSYYGMDYWGQGTSVTVS chain 2 DVVMTQTPLSLPVSLGDQASISCRSSQSLVHSNGNTYLRWYLQKPGQSPKVLIYKVSNRFSGVPDRFSGSGSGTDFTLKISRVEAEDLGVYFCSQSTHVPWTFGGGTKLEIK [chain 1 F29S W36Q] | ≥ 10 µM | 0.549

Continued, in another order:

Row | Kd [1] | Variant | yeast surface expression [2]
4 | ≥ 10 µM | chain 1 EVKLDETGGGLVQPGRPMKLSCVASGFTFSDYWMNWVRQSPEKGLEWVAQIRNKPYNYETYYSDSVKGRFTISRDDSKSSVYLQMNNLRVEDMGIYYCTGSYYRMDYWCQGTSVTVS chain 2 DVVMTQTPLSLPVSLGDQASISCRSSQSLVHSNGNTYLRWYLQKPGQSPKVLIYKVSNRFSGVPDRFSGSGSGTDFTLKISRVEAEDLGVYFCSQSTHVPWTFGGGTKLEIK [chain 1 G104R G109C] | 0.5
5 | ≥ 10 µM | chain 1 EVKLDETGGGLVQPGRPMKLSCVASGFTFSDYWMNWVRQSPEKGLEWVAQIRNKPYNYETYYSDSVKGRFTISRDDSKSSVYLQMNNLRVEDMGIYYCTGSYYGMDYDIQGTSVTVS chain 2 DVVMTQTPLSLPVSLGDQASISCRSSQSLVHSNGNTYLRWYLQKPGQSPKVLIYKVSNRFSGVPDRFSGSGSGTDFTLKISRVEAEDLGVYFCSQSTHVPWTFGGGTKLEIK [chain 1 W108D G109I] | 0.209
6 | 0.00175 µM | chain 1 EVKLDETGGGLVQPGRPMKLSCVASGFTFSDYWMNWVRQSPEKGLEWVAQIRNKPYNYETYYSDSVKGRFTISRDDSKSSVYLQMNNLRVEDMGIYYCTGSYYGFDYLGQGTSVTVS chain 2 DVVMTQTPLSLPVSLGDQASISCRSSQSLVHSNGNTYLRWYLQKPGQSPKVLIYKVSNRFSGVPDRFSGSGSGTDFTLKISRVEAEDLGVYFCSQSTHVPWTFGGGTKLEIK [chain 1 M105F W108L] | 0.451
